Article doi:10.1101/197558 (bioRxiv, 2017)
Where two headings read alike, the source gives them in different places.

T1: full-length C. elegans MEI-1 (C. elegans, UniProt P34808 1-472)
T1 sequence (looked up): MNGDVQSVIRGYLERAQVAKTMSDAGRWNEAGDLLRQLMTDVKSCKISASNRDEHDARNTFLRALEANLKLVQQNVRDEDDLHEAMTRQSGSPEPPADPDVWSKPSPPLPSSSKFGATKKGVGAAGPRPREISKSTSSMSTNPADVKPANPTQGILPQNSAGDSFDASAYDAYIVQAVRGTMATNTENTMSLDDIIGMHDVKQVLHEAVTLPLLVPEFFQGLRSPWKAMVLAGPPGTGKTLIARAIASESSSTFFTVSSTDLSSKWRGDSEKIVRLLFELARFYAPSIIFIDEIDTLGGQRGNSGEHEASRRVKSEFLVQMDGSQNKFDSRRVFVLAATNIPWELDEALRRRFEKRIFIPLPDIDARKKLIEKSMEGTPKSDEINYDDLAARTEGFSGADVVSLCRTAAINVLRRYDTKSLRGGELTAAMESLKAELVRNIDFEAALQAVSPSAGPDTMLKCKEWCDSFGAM

B1: full length human KATNAL1 (E308Q) (enzyme, UniProt Q9BW62 1-490, looked up)
chain: MNLAEICDNAKKGREYALLGNYDSSMVYYQGVMQQIQRHCQSVRDPAIKGKWQQVRQELLEEYEQVKSIVSTLESFKIDKPPDFPVSCQDEPFRDPAVWPPPVPAEHRAPPQIRRPNREVRPLRKEMAGVGARGPVGRAHPISKSEKPSTSRDKDYRARGRDDKGRKNMQDGASDGEMPKFDGAGYDKDLVEALERDIVSRNPSIHWDDIADLEEAKKLLREAVVLPMWMPDFFKGIRRPWKGVLMVGPPGTGKTMLAKAVATECGTTFFNVSSSTLTSKYRGESEKLVRLLFEMARFYAPTTIFIDQIDSICSRRGTSDEHEASRRVKSELLIQMDGVGGALENDDPSKMVMVLAATNFPWDIDEALRRRLEKRIYIPLPTAKGRAELLKINLREVELDPDIQLEDIAEKIEGYSGADITNVCRDASLMAMRRRINGLSPEEIRALSKEELQMPVTKGDFELALKKIAKSVSAADLEKYEKWMVEFGSA

What was measured:
Assay in all cases: SEC-MALS
SEC-MALS [1] = target: the molecule itself
SEC-MALS [2] = target: the molecule itself; remark: listed apart in the source
[3] = target: B1
[4] = target: full length human KATNAL1 (human, UniProt Q9BW62 1-490)
[5] = target: T1, full-length C. elegans MEI-1

Binder	stoichiometry N (SEC-MALS [1])	stoichiometry N (SEC-MALS [2])	other results
wild-type KATNAL1/B1-con80 complex (full length human KATNAL1 with the con80 domain, residues 411-655, of human KATNB1) (complex) chain 1: MNLAEICDNAKKGREYALLGNYDSSMVYYQGVMQQIQRHCQSVRDPAIKGKWQQVRQELLEEYEQVKSIVSTLESFKIDKPPDFPVSCQDEPFRDPAVWPPPVPAEHRAPPQIRRPNREVRPLRKEMAGVGARGPVGRAHPISKSEKPSTSRDKDYRARGRDDKGRKNMQDGASDGEMPKFDGAGYDKDLVEALERDIVSRNPSIHWDDIADLEEAKKLLREAVVLPMWMPDFFKGIRRPWKGVLMVGPPGTGKTMLAKAVATECGTTFFNVSSSTLTSKYRGESEKLVRLLFEMARFYAPTTIFIDEIDSICSRRGTSDEHEASRRVKSELLIQMDGVGGALENDDPSKMVMVLAATNFPWDIDEALRRRLEKRIYIPLPTAKGRAELLKINLREVELDPDIQLEDIAEKIEGYSGADITNVCRDASLMAMRRRINGLSPEEIRALSKEELQMPVTKGDFELALKKIAKSVSAADLEKYEKWMVEFGSA chain 2: AATAKEAAKPSPAMDVQFPVPNLEVLPRPPVVASTPAPKAEPAIIPATRNEPIGLKASDFLPAVKIPQQAELVDEDAMSQIRKGHDTMCVVLTSRHKNLDTVRAVWTMGDIKTSVDSAVAINDLSVVVDLLNIVNQKASLWKLDLCTTVLPQIEKLLQSKYESYVQTGCTSLKLILQRFLPLITDMLAAPPSVGVDISREERLHKCRLCYKQLKSISGLVKSKSGLSGRHGSTFRELHLLMASLD	2	–	–
B1	6	–	–
KATNAL1 (E308Q)/B1-con80 complex (complex, human) chain 1: MNLAEICDNAKKGREYALLGNYDSSMVYYQGVMQQIQRHCQSVRDPAIKGKWQQVRQELLEEYEQVKSIVSTLESFKIDKPPDFPVSCQDEPFRDPAVWPPPVPAEHRAPPQIRRPNREVRPLRKEMAGVGARGPVGRAHPISKSEKPSTSRDKDYRARGRDDKGRKNMQDGASDGEMPKFDGAGYDKDLVEALERDIVSRNPSIHWDDIADLEEAKKLLREAVVLPMWMPDFFKGIRRPWKGVLMVGPPGTGKTMLAKAVATECGTTFFNVSSSTLTSKYRGESEKLVRLLFEMARFYAPTTIFIDQIDSICSRRGTSDEHEASRRVKSELLIQMDGVGGALENDDPSKMVMVLAATNFPWDIDEALRRRLEKRIYIPLPTAKGRAELLKINLREVELDPDIQLEDIAEKIEGYSGADITNVCRDASLMAMRRRINGLSPEEIRALSKEELQMPVTKGDFELALKKIAKSVSAADLEKYEKWMVEFGSA chain 2: AATAKEAAKPSPAMDVQFPVPNLEVLPRPPVVASTPAPKAEPAIIPATRNEPIGLKASDFLPAVKIPQQAELVDEDAMSQIRKGHDTMCVVLTSRHKNLDTVRAVWTMGDIKTSVDSAVAINDLSVVVDLLNIVNQKASLWKLDLCTTVLPQIEKLLQSKYESYVQTGCTSLKLILQRFLPLITDMLAAPPSVGVDISREERLHKCRLCYKQLKSISGLVKSKSGLSGRHGSTFRELHLLMASLD	6	2	–
con80 domain (residues 411-655) of human KATNB1 (domain or fragment, UniProt Q9BVA0 411-655, looked up) AATAKEAAKPSPAMDVQFPVPNLEVLPRPPVVASTPAPKAEPAIIPATRNEPIGLKASDFLPAVKIPQQAELVDEDAMSQIRKGHDTMCVVLTSRHKNLDTVRAVWTMGDIKTSVDSAVAINDLSVVVDLLNIVNQKASLWKLDLCTTVLPQIEKLLQSKYESYVQTGCTSLKLILQRFLPLITDMLAAPPSVGVDISREERLHKCRLCYKQLKSISGLVKSKSGLSGRHGSTFRELHLLMASLD	–	–	binding result [3]: binds; binding result [4]: binds
full-length C. elegans MEI-2 (natural protein, UniProt O44740 1-280, looked up) MSGLDDRKKLTHAKNRKPLNDIPKSAENRPNTRSTSSRRGAEKDVPITFIGSSRTVKADLPEFTNTRSRRPLHSESKKELSRNPVSRGEEHSSSLPKSSPESSVSVMSSNASLWSACTEEVNKIGVCAKRESRNLRVYKMKSFTSNMEQILSNDNQLAPTVIRILNSRNSWCLNSCHACLTFIMENITSDNYGKRSACLKALASITNSLLDTIIGFASTKTRRIGVDVVAEERAAKATECIHNFRKIVKNRDKIYKQIDQETIYKLDAILERLKKVSSHK	–	–	binding result [5]: binds
C. elegans MEI-1/MEI-2 complex (full-length MEI-1 with full-length MEI-2) (complex) chain 1: MNGDVQSVIRGYLERAQVAKTMSDAGRWNEAGDLLRQLMTDVKSCKISASNRDEHDARNTFLRALEANLKLVQQNVRDEDDLHEAMTRQSGSPEPPADPDVWSKPSPPLPSSSKFGATKKGVGAAGPRPREISKSTSSMSTNPADVKPANPTQGILPQNSAGDSFDASAYDAYIVQAVRGTMATNTENTMSLDDIIGMHDVKQVLHEAVTLPLLVPEFFQGLRSPWKAMVLAGPPGTGKTLIARAIASESSSTFFTVSSTDLSSKWRGDSEKIVRLLFELARFYAPSIIFIDEIDTLGGQRGNSGEHEASRRVKSEFLVQMDGSQNKFDSRRVFVLAATNIPWELDEALRRRFEKRIFIPLPDIDARKKLIEKSMEGTPKSDEINYDDLAARTEGFSGADVVSLCRTAAINVLRRYDTKSLRGGELTAAMESLKAELVRNIDFEAALQAVSPSAGPDTMLKCKEWCDSFGAM chain 2: MSGLDDRKKLTHAKNRKPLNDIPKSAENRPNTRSTSSRRGAEKDVPITFIGSSRTVKADLPEFTNTRSRRPLHSESKKELSRNPVSRGEEHSSSLPKSSPESSVSVMSSNASLWSACTEEVNKIGVCAKRESRNLRVYKMKSFTSNMEQILSNDNQLAPTVIRILNSRNSWCLNSCHACLTFIMENITSDNYGKRSACLKALASITNSLLDTIIGFASTKTRRIGVDVVAEERAAKATECIHNFRKIVKNRDKIYKQIDQETIYKLDAILERLKKVSSHK	–	2	–
